Experimental findings from article PMC4414724 are described below.

Substrate in this data set: OCCCCCO
In words: Reactions of horse liver ADH1E with 1,5-pentanediol and 5-hydroxypentanal. The following applies: pH 7.0; 25.0 °C. The class given is biochemical.

B1: horse liver ADH1E (Equus caballus) (protein)
chain: STAGKVIKCKAAVLWEEKKPFSIEEVEVAPPKAHEVRIKMVATGICRSDDHVVSGTLVTPLPVIAGHEAAGIVESIGEGVTTVRPGDKVIPLFTPQCGKCRVCKHPEGNFCLKNDLSMPRGTMQDGTSRFTCRGKPIHHFLGTSTFSQYTVVDEISVAKIDAASPLEKVCLIGCGFSTGYGSAVKVAKVTQGSTCAVFGLGGVGLSVIMGCKAAGAARIIGVDINKDKFAKAKEVGATECVNPQDYKKPIQEVLTEMSNGGVDFSFEVIGRLDTMVTALSCCQEAYGVSVIVGVPPDSQNLSMNPMLLLSGRTWKGAIFGGFKSKDSVPKLVADFMAKKFALDPLITHVLPFEKINEGFDLLRSGESIRTILTF
In the case of B1, the Km is listed as 21 mM.

A word on the Km: it is the substrate concentration at which the rate is half of its maximum.
